Biological target: SARS-CoV-2 S trimer (SARS-CoV-2, wild-type (Wuhan-Hu-1 …, UniProt P0DTC2))
Test: SPR

B1: C121 IgG (antibody, V domains shown)
VH: not shown
VL: QSALTQPASVSGSPGQSITISCTGTSSDVGSYNLVSWYQQHPGKAPKLMIYEGSKRPSGVSNRFSGSKSGNTASLTISGLQAEDEADYYCCSYAGSSTLVFGGGTKLTVL
- binding result: binds
